Data published in patent US6458943 (INSTITUT NATIONAL DE LA SANTE ET DE LA RECHERCHE MEDICALE, dated 2002).

B1: mD52(1-95) bait (GAL4 DNA-binding domain fusion, pAS2-1mD52(1-95)) (other)
chain: MKLLSSIEQACDICRLKKLKCSKEKPKCAKCLKNNWECRYSPKTKRSPLTRAHLTEVESRLERLEQLFLLIFPREDLDMILKMDSLQDIKALLTGLFVQDNVNKDAVTDRLASVETDMPLTLRQHRISATSSSEESSNKGQRQLTVSMDRGEQGLLKTEPVAEEGEDAVTMLSAPEALTEEEQEELRRELTKVEEEIQTLSQVLAAKEKHLAELKRKLGISSLQEFKQNIAKGWQDVTATNA
notes: also called N-terminal half of mD52
B2: hD53 library interactor, pAD-GAL4 clone beginning at nt 204 of the hD53 cDNA (Leu9) (other)
chain: PSALFGGANFNQSGNIADSSLSFTFTNSSNGPNLITTQTNSQALSQPIASSNVHDNFMNNEITASKIDDGNNSKPLSPGWTDQTAYNAFGITTGMFNTTTMDDVYNYLFDDEDTPPNPKKELETEPLQGTDEDAVASADFSSMLSEEEKEELKAELVQLEDEITTLRQVLSAKERHLVEIKQKLGMNLMNELKQNFSKSWHDMQTTTAYKKTHETLSHAGQKATAAFSNVGTAISKKFGDMSYSIRHSISMPAMRNSPTFKSFEERVETTVTSLKTKVGGTNPNGGSFEEVLSSTAHASAQSLAGGSRRTKEEELQC
notes: range 761-881; The clone lacks hD53 residues 1-8 (starts at Leu9); Found with the hD53 bait in Y190 and with the hD52 bait in Hf7c; also called nt 204 (Leu^9)
B3: RING10 proteasome subunit library interactor (pAD-GAL4 construct, GenBank accession no. X62598) (other, UniProt P04386 761-881, looked up)
chain: PSALFGGANFNQSGNIADSSLSFTFTNSSNGPNLITTQTNSQALSQPIASSNVHDNFMNNEITASKIDDGNNSKPLSPGWTDQTAYNAFGITTGMFNTTTMDDVYNYLFDDEDTPPNPKKETTTLAFKFQHGVIAAVDSRASAGSYISALRVNKVIEINPYLLGTMSGCAADCQYWERLLAKECRLYYLRNGERISVSAASKLLSNMMCQYRGMGLSMGSMICGWDKKGPGLYYVDEHGTRLSGNMFSTGSGNTYAYGVMDSGYRPNLSPEEAYDLGRRAIAYATHRDSYSGGVVNMYHMKEDGWVKVESTDVSDLLHQYREANQ
notes: False positive of the Hf7c screen
B4: hD52 bait (GAL4 DNA-binding domain fusion, pAS2-1hD52) (other)
chain: MKLLSSIEQACDICRLKKLKCSKEKPKCAKCLKNNWECRYSPKTKRSPLTRAHLTEVESRLERLEQLFLLIFPREDLDMILKMDSLQDIKALLTGLFVQDNVNKDAVTDRLASVETDMPLTLRQHRISATSSSEESSNKGQRQLTVSMDRGEQGLLRTDPVPEEGEDVAATISATETLSEEEQEELRRELAKVEEEIQTLSQVLAAKEKHLAEIKRKLGINSLQELKQNIAKGWQDVTATSAYKKTSETLSQAGQKASAAFSSVGSVITKKLEDVKNSPTFKSFEEKVENLKSKVGGTKPAGGDFGEVLNSAANASATTTEPLPEKTQESL
notes: Fusion expressed in yeast; also called full-length hD52 bait
B5: mD52 bait (GAL4 DNA-binding domain fusion, pAS2-1mD52) (other, not shown: small tags and cut ends)
chain: MDRGEQGLLKTEPVAEEGEDAVTMLSAPEALTEEEQEELRRELTKVEEEIQTLSQVLAAKEKHLAELKRKLGISSLQEFKQNIAKGWQDVTATNAYKKTSETLSQAGQKASAAFSSVGSVITKKLEDVKNSPTFKSFEEKVENLKSKVGGAKPAGGDFGEVLNSTANATSTMTTEPPPEQMTESP
notes: Fusion expressed in yeast; also called full-length mD52 bait
B6: hD52 library interactor, pAD-GAL4 clone beginning at nt 60 of the hD52 cDNA (<Met1) (other)
chain: PSALFGGANFNQSGNIADSSLSFTFTNSSNGPNLITTQTNSQALSQPIASSNVHDNFMNNEITASKIDDGNNSKPLSPGWTDQTAYNAFGITTGMFNTTTMDDVYNYLFDDEDTPPNPKKEMDRGEQGLLRTDPVPEEGEDVAATISATETLSEEEQEELRRELAKVEEEIQTLSQVLAAKEKHLAEIKRKLGINSLQELKQNIAKGWQDVTATSAYKKTSETLSQAGQKASAAFSSVGSVITKKLEDVKNSPTFKSFEEKVENLKSKVGGTKPAGGDFGEVLNSAANASATTTEPLPEKTQESL
notes: range 761-881; also called nt 60 (<Met^1)

Legend:
[1] = target: T1, hD53 interactor (GAL4 activation domain fusion, pACT2hD53) (human, UniProt P04386 768-881 (Saccharomyces cerevisiae entry)); assay: yeast two-hybrid in Y190, β-galactosidase assay
T1 construct: range 768-881
T1 sequence: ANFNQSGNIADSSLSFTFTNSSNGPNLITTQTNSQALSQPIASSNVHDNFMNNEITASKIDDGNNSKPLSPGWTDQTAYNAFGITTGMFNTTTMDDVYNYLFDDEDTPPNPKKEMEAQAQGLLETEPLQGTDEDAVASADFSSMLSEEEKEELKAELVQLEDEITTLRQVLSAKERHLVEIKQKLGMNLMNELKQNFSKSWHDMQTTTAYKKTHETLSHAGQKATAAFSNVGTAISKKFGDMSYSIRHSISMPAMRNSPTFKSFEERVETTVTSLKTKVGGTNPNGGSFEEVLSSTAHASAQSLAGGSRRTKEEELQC
Procedure: Interactions between baits and interactors were assessed by qualitatively and/or quantitatively determining HIS3 and lacZ reporter gene activity in Y190 co-transfectants. Reporter gene activities were assessed qualitatively by observing the growth and color development of Y190 co-transfectants on solid SD media lacking His, Trp and Leu (SD/-His-Trp-Leu), and incorporating 0.07 M potassium phosphate pH 7, 35 mM 3-AT, and 40 µg/ml X-gal. For quantitative assessment of interactions, β-galactosidase activity was measured using the substrate o-nitrophenyl β-D-galactopyranoside (ONPG) in liquid cultures (SD/-His-Trp-Leu +35 mM 3-AT) of Y190 co-transfectants.

[2] = target: B4; assay: yeast two-hybrid screening of a human breast carcinoma cDNA library in Hf7c (His+)
Procedure: (§1) Transformants were plated onto solid SD/-His-Trp-Leu (incorporating 35 mM 3-AT in the case of Y190 transformants) and incubated for up to 14 days at 30° C. After 3 initial days of growth, plates were inspected daily, and His+ colonies were transferred to SD/-His-Trp-Leu +0.07 M potassium phosphate pH 7+40 µg/ml X-gal plates which incorporated 35 mM 3-AT in the case of Y190 co-transformants. Colonies which remained His+, and in the case of Y190 co-transformants, were also lacZ+, were re-streaked onto fresh plates to check that all colonies were of uniform phenotype. After 6 days incubation at 30° C., yeast colonies were directly harvested, and plasmid DNA was isolated and used to transfect XL1 Blue. Mini-preparations of plasmid DNA were performed for at least 5 XL1 Blue colonies per transfection, with the results of restriction digests differentiating potential interactors from bait plasmids. […] Phenotypes of resulting co-transfectants were assayed quantitatively and/or qualitatively as described above.

[3] = target: T2, hD53 bait (GAL4 DNA-binding domain fusion, pAS2-1hD53) (human, UniProt P04386 1-147 (Saccharomyces cerevisiae entry)); assay: yeast two-hybrid screening of a human breast carcinoma cDNA library in Y190 (His+ lacZ+)
T2 construct: Fusion expressed in yeast; also called full-length hD53 bait

[4] = target: B4; assay: yeast two-hybrid, retransfection of Hf7c
Procedure: as §1

[5] = target: T3, eukaryotic initiation factor 4AII library interactor (pAD-GAL4 construct, DNA Database of Japan accession no. … (human, UniProt P04386 761-881; Q14240 1-407, limits assumed); assay: yeast two-hybrid, retransfection of Hf7c
T3 construct: False positive of the Hf7c screen
Procedure: as §1

[6] = target: T4, histidyl t-RNA synthetase library interactor (pAD-GAL4 construct, EBML accession no. Z 11518) (human, UniProt P04386 761-881; P12081 2-509, limits assumed); assay: yeast two-hybrid, retransfection of Hf7c
T4 construct: False positive of the Hf7c screen
T4 sequence (looked up): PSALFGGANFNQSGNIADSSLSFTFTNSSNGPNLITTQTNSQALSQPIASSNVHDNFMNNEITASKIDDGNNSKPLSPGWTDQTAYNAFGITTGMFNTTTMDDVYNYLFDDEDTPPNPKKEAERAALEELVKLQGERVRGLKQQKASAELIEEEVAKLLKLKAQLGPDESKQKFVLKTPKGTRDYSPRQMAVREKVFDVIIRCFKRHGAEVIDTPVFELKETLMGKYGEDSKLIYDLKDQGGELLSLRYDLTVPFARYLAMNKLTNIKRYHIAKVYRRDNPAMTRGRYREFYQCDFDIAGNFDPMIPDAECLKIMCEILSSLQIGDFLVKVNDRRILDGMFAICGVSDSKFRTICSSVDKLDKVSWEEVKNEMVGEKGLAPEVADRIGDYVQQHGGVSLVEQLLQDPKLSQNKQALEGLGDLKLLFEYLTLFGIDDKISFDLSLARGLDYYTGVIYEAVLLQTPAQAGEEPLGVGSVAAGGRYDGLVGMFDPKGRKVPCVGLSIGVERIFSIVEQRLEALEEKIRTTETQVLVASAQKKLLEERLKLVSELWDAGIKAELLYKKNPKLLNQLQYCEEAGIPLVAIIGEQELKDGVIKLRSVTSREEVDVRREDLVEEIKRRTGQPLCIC
Procedure: as §1

[7] = target: T5, hD54-ins2 interactor (GAL4 activation domain fusion, pACT2hD54-ins2) (human, UniProt P04386 768-881 (Saccharomyces cerevisiae entry)); assay: yeast two-hybrid, Y190 co-transfectants, HIS3/lacZ reporters; interactor (GAL4-AD fusion) against bait (GAL4-DB fusion)
T5 construct: range 768-881
Procedure: (§2) Interactions between baits and interactors were assessed by qualitatively and/or quantitatively determining HIS3 and/or lacZ reporter gene activity in Y190 co-transfectants.
(§3) Interactions between D52-like proteins within the yeast two-hybrid system, as measured by quantitative β-galactosidase assays. […] Three (or two*) colonies from each co-transfected Y190 strain were cultured in the absence of histidine, and assayed separately for β-galactosidase activity (see Methods). The mean number of β-galactosidase activity units obtained for each co-transfection is presented, ± the standard error.

[8] = target: T6, hD52 interactor (GAL4 activation domain fusion, pAD-GAL4hD52) (human, UniProt P04386 761-881 (Saccharomyces cerevisiae entry)); assay: as above
T6 construct: range 761-881; also called hD52^c
T6 sequence: B6 chain
Procedure: as §2, §3

[9] = target: T1, hD53 interactor (GAL4 activation domain …); assay: as above
Procedure: as §2, §3

[10] = target: T7, hD54+ins2 interactor (GAL4 activation domain fusion, pACT2hD54+ins2) (human, UniProt P04386 768-881 (Saccharomyces cerevisiae entry)); assay: as above
T7 construct: range 768-881
Procedure: as §2, §3

[11] = target: T8, mD52(1-163) interactor (GAL4 activation domain fusion, pACT2mD52(1-163)) (mouse, UniProt P04386 768-881 (Saccharomyces cerevisiae entry)); assay: as above
T8 construct: range 768-881
T8 sequence: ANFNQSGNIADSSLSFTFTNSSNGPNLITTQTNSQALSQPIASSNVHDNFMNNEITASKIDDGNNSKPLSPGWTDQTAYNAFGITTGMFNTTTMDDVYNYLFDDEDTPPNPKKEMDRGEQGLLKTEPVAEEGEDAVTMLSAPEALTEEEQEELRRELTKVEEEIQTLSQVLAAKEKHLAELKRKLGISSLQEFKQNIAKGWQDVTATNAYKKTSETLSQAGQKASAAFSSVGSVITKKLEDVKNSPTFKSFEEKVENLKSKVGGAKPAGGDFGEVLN
Procedure: as §2, §3

B1: binds [1].

B2: binds [2]; binds [3].

B3: no binding [4].

B4: no binding [5]; no binding [6].

B5: binds [7]; binds [8]; binds [9]. B5: binds [10]; binds [11].

B6: binds [2].
